Measurements published in patent publication US20180044427A1 (Janssen / Centocor, published 2018).
Each block holds one binder with its values, some of them ahead of it.

Assays:
[1] = biological target: T1, human FcγRI (NM_000566) (human, UniProt P12314 16-374); assay: flow cytometry on transiently transfected Expi293F cells
T1 construct: Transiently expressed on Expi293F cells
Experimental: (§1) Plasmids expressing cDNAs encoding human FcγRI (NM_000566) (SEQ ID NO: 59), FcγRIIA (NM_021642) (SEQ ID NO: 60), FcγRIIB (NM_004001) (SEQ ID NO: 61), and FcγRIIIA (NM_000569) (SEQ ID NO: 62) (Origene) were transiently transfected into Expi293F cells by ExpiFectamine293 transfection kit (Life Technologies). Flow cytometry assays were performed 48 h after transfection. […] Raji cells (ATCC: CCL-86) were also employed to test the binding of anti-OX40 antibody to FcγRIIB receptor.
(§2) 2×10⁵ cells per well were seeded in 96-well plate and blocked in BSA Stain Buffer (BD Biosciences, San Jose, USA) for 30 min at 4° C. Cells were incubated with test antibody on ice for 1.5 h at 4° C. After being washed twice with BSA stain buffer, the cells were incubated with R-PE labeled anti-human or anti-mouse IgG secondary antibody (Jackson Immunoresearch Laboratories) for 45 min at 4° C. The cells were washed twice in stain buffer and then resuspended in 150 μL of Stain Buffer containing 1:200 diluted DRAQ7 live/dead stain (Cell Signaling Technology, Danvers, USA). PE and DRAQ7 signals of the stained cells were detected by Miltenyi MACSQuant flow cytometer (Miltenyi Biotec, Auburn, USA) using B2 and B4 channel respectively. Live cells were gated on DRAQ7 exclusion and the geometric mean fluorescence signals were determined for at least 10,000 live events collected. FlowJo software (Tree Star) was used for analysis. Data was plotted as the logarithm of antibody concentration versus mean fluorescence signals. Nonlinear regression analysis was performed by GraphPad Prism 6 (GraphPad Software, Inc.) and EC₅₀ values were calculated.
(§3) The binding of engineered anti-OX40 SF2 antibodies to various FcγR receptors expressed on transiently-transfected Expi293F cells were assessed by flow cytometry as described in Example 3.

[2] = biological target: T2, human FcγRIIA (NM_021642) (human, UniProt P12318 36-317); assay: as above
T2 construct: Transiently expressed on Expi293F cells
T2 sequence: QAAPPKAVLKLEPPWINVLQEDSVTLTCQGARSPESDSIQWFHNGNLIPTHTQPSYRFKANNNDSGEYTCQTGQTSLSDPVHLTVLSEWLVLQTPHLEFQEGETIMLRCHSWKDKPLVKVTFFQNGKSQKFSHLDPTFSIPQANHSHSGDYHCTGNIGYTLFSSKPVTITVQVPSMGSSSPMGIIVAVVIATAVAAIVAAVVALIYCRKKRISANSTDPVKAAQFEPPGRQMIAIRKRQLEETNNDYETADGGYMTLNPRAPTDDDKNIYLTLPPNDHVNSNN
Experimental: as §1, §2, §3

[3] = biological target: T3, human FcγRIIB (NM_004001) (human, UniProt P31994 43-310); assay: as above
T3 construct: Transiently expressed on Expi293F cells
T3 sequence: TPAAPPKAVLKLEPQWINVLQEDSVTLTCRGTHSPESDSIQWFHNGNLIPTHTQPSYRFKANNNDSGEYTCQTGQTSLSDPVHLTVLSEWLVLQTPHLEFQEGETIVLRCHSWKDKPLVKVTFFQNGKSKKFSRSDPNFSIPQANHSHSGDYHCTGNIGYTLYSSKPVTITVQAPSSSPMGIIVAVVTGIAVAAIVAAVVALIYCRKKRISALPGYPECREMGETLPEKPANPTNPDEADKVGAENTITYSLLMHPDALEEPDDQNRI
Experimental: as §1, §2, §3

[4] = biological target: T4, human FcγRIIIA (NM_000569) (human, UniProt P08637 17-254); assay: as above
T4 construct: Transiently expressed on Expi293F cells
T4 sequence (P08637 17-254 limits assumed): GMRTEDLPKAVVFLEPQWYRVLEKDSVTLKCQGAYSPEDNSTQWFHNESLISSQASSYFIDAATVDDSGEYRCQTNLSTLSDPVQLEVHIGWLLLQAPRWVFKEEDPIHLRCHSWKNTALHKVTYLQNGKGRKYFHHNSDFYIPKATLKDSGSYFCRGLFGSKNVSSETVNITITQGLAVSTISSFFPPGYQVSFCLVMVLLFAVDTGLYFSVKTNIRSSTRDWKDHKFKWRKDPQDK
Experimental: as §1, §2, §3

[5] = biological target: T5, recombinant human FcRn extracellular domain with a poly-histidine affinity tag (FcRn-His6) (human, UniProt P55899 24-297); assay: competitive binding assay on plate-captured FcRn-His6 at pH 6.0; competitor: biotinylated human IgG1 indicator antibody at 1 µg/mL
T5 construct: extracellular domain
T5 sequence (P55899 24-297, form in doubt): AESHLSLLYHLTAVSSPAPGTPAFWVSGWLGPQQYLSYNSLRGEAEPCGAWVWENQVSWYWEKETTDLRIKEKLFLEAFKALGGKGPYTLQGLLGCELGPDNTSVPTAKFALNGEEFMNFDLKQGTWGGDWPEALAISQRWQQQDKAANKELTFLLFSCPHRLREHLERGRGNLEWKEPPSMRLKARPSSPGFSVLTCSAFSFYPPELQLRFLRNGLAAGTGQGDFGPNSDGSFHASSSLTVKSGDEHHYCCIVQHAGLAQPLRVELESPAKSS
Experimental: A competitive binding assay was used to assess relative affinities of different antibody samples to a recombinant human FcRn extracellular domain with a poly-histidine affinity tag (FcRn-His6). Ninety-six-well copper-coated plates (Thermo Scientific) were used to capture FcRn-His6 at 5 μg/mL in PBS, after which plates were washed with 0.15M NaCl, 0.02% Tween 20, and then incubated with blocking reagent (0.05M MES [2-(N-morpholino) ethanesulfonic acid], 0.025% bovine serum albumin (BSA), 0.001% Tween-20, pH 6.0, 10% chemiBLOCKER (Millipore)). […] Plates were incubated at room temperature for 1 hour, washed three times as above, and then incubated with a 1:10,000 dilution of streptavidin-horseradish peroxidase (HRP) (Jackson ImmunoResearch Laboratories) at room temperature for 30 minutes to bind biotinylated antibody. Plates were washed five times as above, and bound streptavidin-HRP detected by adding TMB (3,3′,5,5′-tetramethylbenzidine) peroxidase substrate with stable stop (Fitzgerald Industries International) and incubating for 4 minutes. Color development was stopped by addition of 0.5 M HCl. Optical densities were determined with a SpectraMax Plus384 plate reader (Molecular Devices) at 450 nm wavelength.

T1 sequence (P12314 16-374 limits assumed): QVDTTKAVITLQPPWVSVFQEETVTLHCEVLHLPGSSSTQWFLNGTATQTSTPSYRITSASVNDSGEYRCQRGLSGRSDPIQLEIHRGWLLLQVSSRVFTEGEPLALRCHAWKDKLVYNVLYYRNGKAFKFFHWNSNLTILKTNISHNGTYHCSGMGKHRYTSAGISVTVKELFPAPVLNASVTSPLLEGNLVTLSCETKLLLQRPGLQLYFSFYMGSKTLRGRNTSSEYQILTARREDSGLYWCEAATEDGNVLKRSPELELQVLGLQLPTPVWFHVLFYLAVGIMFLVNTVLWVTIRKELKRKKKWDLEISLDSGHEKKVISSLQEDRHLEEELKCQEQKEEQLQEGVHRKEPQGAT

EC50 [1]: 0.24 µg/mL
EC50 [2]: 4.13 µg/mL
EC50 [3]: > 10 µg/mL
EC50 [4]: 1.14 µg/mL
IC50 [5]: 1.1 µg/mL
B1: OX40SF2IgG1T437R (antibody)
heavy: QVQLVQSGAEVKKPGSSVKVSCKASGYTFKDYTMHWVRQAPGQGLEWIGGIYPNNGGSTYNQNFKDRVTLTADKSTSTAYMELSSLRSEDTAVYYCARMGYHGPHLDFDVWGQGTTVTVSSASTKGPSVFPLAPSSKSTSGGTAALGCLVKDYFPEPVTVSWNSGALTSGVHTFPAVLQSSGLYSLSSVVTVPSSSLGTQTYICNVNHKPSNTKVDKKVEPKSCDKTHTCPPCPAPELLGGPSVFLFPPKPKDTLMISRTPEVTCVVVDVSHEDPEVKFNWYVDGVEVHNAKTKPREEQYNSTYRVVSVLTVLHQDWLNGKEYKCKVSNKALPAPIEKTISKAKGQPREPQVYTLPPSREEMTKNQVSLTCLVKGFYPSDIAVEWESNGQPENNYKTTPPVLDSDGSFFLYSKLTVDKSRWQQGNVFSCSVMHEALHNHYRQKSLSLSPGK
VL: DIQMTQSPSSLSASVGDRVTITCKASQDVGAAVAWYQQKPGKAPKLLIYWASTRHTGVPSRFSGSGSGTDFTLTISSLQPEDFATYYCQQYINYPLTFGGGTKVEIK
notes: also called SF2 antibody with T437R

EC50 [1]: 0.248 µg/mL
EC50 [2]: 3.39 µg/mL
EC50 [3]: > 10 µg/mL
EC50 [4]: 1.56 µg/mL
IC50 [5]: 1.6 µg/mL
B2: OX40SF2IgG1T437R/K248E (antibody)
heavy: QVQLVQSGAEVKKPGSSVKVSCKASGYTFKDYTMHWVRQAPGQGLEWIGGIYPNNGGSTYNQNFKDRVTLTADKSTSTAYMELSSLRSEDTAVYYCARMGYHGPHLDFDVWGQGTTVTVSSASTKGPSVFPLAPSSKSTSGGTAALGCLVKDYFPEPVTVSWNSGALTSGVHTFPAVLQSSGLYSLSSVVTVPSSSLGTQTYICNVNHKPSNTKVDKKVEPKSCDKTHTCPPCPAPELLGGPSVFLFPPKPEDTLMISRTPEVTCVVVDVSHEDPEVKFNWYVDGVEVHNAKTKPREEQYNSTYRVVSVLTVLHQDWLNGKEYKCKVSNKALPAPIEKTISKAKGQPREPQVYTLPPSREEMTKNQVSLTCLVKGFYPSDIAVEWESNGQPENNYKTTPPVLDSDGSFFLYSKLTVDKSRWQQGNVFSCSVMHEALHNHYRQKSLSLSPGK
VL: B1 VL

EC50 [1]: 0.326 µg/mL
EC50 [2]: 4.56 µg/mL
EC50 [3]: > 10 µg/mL
EC50 [4]: 0.744 µg/mL
B3: OX40SF2IgG1 (antibody)
chain 1: not shown
chain 2: DIQMTQSPSSLSASVGDRVTITCKASQDVGAAVAWYQQKPGKAPKLLIYWASTRHTGVPSRFSGSGSGTDFTLTISSLQPEDFATYYCQQYINYPLTFGGGTKVEIKRTVAAPSVFIFPPSDEQLKSGTASVVCLLNNFYPREAKVQWKVDNALQSGNSQESVTEQDSKDSTYSLSSTLTLSKADYEKHKVYACEVTHQGLSSPVTKSFNRGEC
